{"source": "paper PMC6060171", "target": "AcrIIA6 (anti-CRISPR protein of Streptococcus thermophilus virulent phage D1811, product of gene D1811_026) (Streptococcus thermophilus phage D1811)", "assay": "SEC; gel filtration profile of purified AcrIIA6; size exclusion chromatography in 20 mM Hepes pH 7.5, 150 mM NaCl"}
{"substance": "AcrIIA6 (anti-CRISPR protein of Streptococcus thermophilus virulent phage D1811, product of gene D1811_026) (natural protein)", "values": [{"measurement": "stoichiometry N", "result": 2}]}
